Results on one molecule are retold here after PMC4619145 (Virology, 2015).

Assay [1] deals with T1, DENV-2 envelope glycoprotein E domain III (DIII), wild type, displayed on M13 phage (Dengue virus 2, Jamaica/1409/1983).
T1 chain: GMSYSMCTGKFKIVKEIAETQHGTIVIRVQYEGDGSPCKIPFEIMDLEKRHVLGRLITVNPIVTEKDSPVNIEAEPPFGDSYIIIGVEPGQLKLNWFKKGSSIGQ
The assay is described as follows: ELISA.

The target of assay [2] is T2, DENV-3 envelope glycoprotein E domain III (DIII), wild type, displayed on M13 phage (Dengue virus 3, Thailand/PaH881/1988).
T2 chain: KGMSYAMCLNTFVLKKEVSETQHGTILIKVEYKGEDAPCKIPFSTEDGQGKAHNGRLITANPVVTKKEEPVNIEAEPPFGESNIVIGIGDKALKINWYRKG
The assay can be described thus: ELISA.

B1: monoclonal antibody 4E11 (IgG) (antibody, V domains shown)
VH: VKLLEQSGAELVKPGASVRLSCTASGFNIKDTYMSWVKQRPEQGLEWIGRIDPANGDTKYDPKFQGKATITADTSSNTAYLHLSSLTSGDTAVYYCSRGWEGFAYWGQGTLVTVSA
VL: ELVMTQTPASLAVSLGQRATISCRASENVDRYGNSFMHWYQQKAGQPPKLLIYRASNLESGIPARFSGSGSRTDFTLTINPVEADDVATYFCQRSNEVPWTFGGGTKLEIK
Turning to B1, the binding result in assay [1] and in assay [2] was “binds” each time.
